Where “and” joins values, the source holds several entries; their conditions need not be identical. Identical values can stand only once. Like-named read-outs stand apart in the source and are kept apart here.
T1: recombinant human IL-12 (rhIL-12) (human, UniProt P29459 23-219; P29460 23-328)
T1 construct: disulfide-linked p35/p40 heterodimer (p70); also called IL-12 p70; rec. human IL12
T1 sequence (looked up) 1: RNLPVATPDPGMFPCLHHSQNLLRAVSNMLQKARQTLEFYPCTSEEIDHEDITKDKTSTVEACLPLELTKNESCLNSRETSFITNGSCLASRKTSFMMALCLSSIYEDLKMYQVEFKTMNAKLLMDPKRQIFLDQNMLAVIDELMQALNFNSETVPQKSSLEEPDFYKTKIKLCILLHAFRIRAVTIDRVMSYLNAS
T1 sequence (looked up) 2: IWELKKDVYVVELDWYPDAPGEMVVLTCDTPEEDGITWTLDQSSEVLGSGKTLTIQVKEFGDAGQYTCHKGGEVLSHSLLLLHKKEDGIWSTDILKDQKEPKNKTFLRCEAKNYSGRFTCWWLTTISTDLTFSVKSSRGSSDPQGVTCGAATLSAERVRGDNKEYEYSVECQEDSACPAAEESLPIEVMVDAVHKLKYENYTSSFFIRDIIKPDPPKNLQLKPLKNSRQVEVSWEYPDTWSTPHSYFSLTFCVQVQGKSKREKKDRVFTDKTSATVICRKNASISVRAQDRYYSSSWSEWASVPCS

T2: human interleukin 12 (p70 heterodimer of p35 and p40) (human, UniProt P29459 23-219; P29460 23-328)
T2 construct: Recombinant human IL-12; p35 and p40 linked by a disulfide bridge; also called hIL-12; IL-12
T2 sequence (looked up) 1: T1 sequence (looked up) 1
T2 sequence (looked up) 2: T1 sequence (looked up) 2

B1: Y61 IgG (antibody, V domains shown)
VH: QVQLVQSGGGVVQPGRSLRLSCAASGFTFSSYGMHWVRQAPGKGLEWVAFIRYDGSNKYYADSVKGRFTISRDNSKNTLYLQMKSLRAEDTAVYYCKTHGSHDNWGQGTMVTVSS
VL: SYVLTQPPSVSGTPGQRVTISCSGGRSWIGSNTVKWYQQLPGTAPKLLIYGNDQRPSGVPDRFSGSKSGTSASLAITGVQAEDEADYYCQSYDRGTHPALLFGTGTKVTVLG
notes: whole IgG1; also called Y61-IgG1
B2: Y61 scFv (scFv, V domains shown)
VH: B1 VH
VL: B1 VL
notes: Single chain Fv; also called clone Y61

Columns and labels:
[1] = molecular target: T1, recombinant human IL-12 (rhIL-12); assay: receptor binding assay, 125I-hIL-12 on PHA blasts
Method: PHA blast cells isolated as described above, were washed once and resuspended in binding buffer to a cell density of 2×10⁷ cells/ml. […] The cell pellet was examined for cell bound radioactivity using a gamma counter. […] Incubations were carried out in duplicate.

[2] = molecular target: T1, recombinant human IL-12 (rhIL-12); assay: BIAcore SPR
[3] = molecular target: T1, recombinant human IL-12 (rhIL-12); assay: cell-based or functional assay
[4] = molecular target: T1, recombinant human IL-12 (rhIL-12); assay: cell-based or functional assay; remark: listed apart in the source
[5] = molecular target: T1, recombinant human IL-12 (rhIL-12); assay: cell-based or functional assay; remark: listed apart in the source
[6] = molecular target: T2, human interleukin 12 (p70 heterodimer …); assay: BIAcore
[7] = molecular target: T2, human interleukin 12 (p70 heterodimer …); assay: BIAcore; remark: listed apart in the source
[8] = molecular target: T2, human interleukin 12 (p70 heterodimer …); assay: BIAcore; remark: listed apart in the source
[9] = molecular target: T2, human interleukin 12 (p70 heterodimer …); assay: BIAcore; remark: listed apart in the source
[10] = molecular target: T2, human interleukin 12 (p70 heterodimer …); assay: BIAcore; remark: listed apart in the source
[11] = molecular target: T2, human interleukin 12 (p70 heterodimer …); assay: BIAcore; remark: listed apart in the source
[12] = molecular target: T2, human interleukin 12 (p70 heterodimer …); assay: BIAcore; remark: listed apart in the source

Row | Binder | IC50 [1] | koff [2] | PHA assay IC50 (M) p70:p40 1:0 [3] | PHA assay IC50 (M) p70:p40 1:50 [3] | IC50 (M), bioassay, Human IL-12 Purified [4] | PHA assay IC50 [5] | koff [6] | koff [7] | koff [8] | koff [9] | koff [10] | koff [11] | koff [12]
1 | B1 | 0.016 nM | 0.00015 s⁻¹ | 1.8e-10 M | 1.8e-10 M | 1.7e-10 M | 0.13 nM | – | – | – | – | – | – | –
2 | B2 | – | – | – | – | – | – | 0.000259 s⁻¹ and 0.000199 s⁻¹ and 0.000256 s⁻¹ | 0.000204 s⁻¹ and 0.000206 s⁻¹ and 0.000151 s⁻¹ and 0.000178 s⁻¹ | 0.000211 s⁻¹ and 0.000229 s⁻¹ and 0.000241 s⁻¹ | 0.000403 s⁻¹ | 0.000215 s⁻¹ and 0.000297 s⁻¹ | 0.000249 s⁻¹ and 0.000168 s⁻¹ and 0.000337 s⁻¹ and 0.000178 s⁻¹ | 0.000385 s⁻¹ and 0.00031 s⁻¹
